For assay [1], the target named is T1, P1243_AMBAM (Amblyomma americanum, UniProt A0A0C9S461 26-123).
T1 sequence: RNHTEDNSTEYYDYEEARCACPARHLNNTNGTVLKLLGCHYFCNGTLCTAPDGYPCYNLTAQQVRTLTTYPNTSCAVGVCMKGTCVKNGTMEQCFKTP
Kind of assay: BLI. A general note: BLI is a label-free optical method that tracks binding on a fibre tip over time.

The target in the next assay is T2, P991_AMBCA (Amblyomma cajennense, UniProt A0A023FFD0 29-136).
T2 sequence: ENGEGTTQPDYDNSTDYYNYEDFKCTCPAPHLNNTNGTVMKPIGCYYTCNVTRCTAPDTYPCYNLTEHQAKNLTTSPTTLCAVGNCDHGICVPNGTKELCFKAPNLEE
Kind of assay: BLI.

In assay [2] the target is T1, P1243_AMBAM. Kind of assay: BLI. This is another data set of the same source.
A further assay concerns the target T3, CXCL8_HUMAN (human, UniProt P10145 28-99).
T3 sequence: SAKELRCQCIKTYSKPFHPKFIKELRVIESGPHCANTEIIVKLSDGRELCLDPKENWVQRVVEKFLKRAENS
The assay is described as follows: BLI [Cont.].

For the next assay, the target named is T4, CXCL7_HUMAN (human, UniProt P02775 59-128).
T4 sequence: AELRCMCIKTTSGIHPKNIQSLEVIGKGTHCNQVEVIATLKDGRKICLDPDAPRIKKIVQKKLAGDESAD
The assay is described as follows: BLI [Cont.].

The target of the next assay is T5, CXCL4_HUMAN (human, UniProt P02776 32-101).
T5 sequence: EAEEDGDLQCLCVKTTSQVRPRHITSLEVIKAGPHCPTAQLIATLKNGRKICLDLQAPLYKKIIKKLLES
Kind of assay: BLI [Cont.].

In another assay the target is CXCL12_HUMAN (human, UniProt P48061 22-89). Kind of assay: BLI.
Sequence of CXCL12_HUMAN (P48061 22-89 limits assumed): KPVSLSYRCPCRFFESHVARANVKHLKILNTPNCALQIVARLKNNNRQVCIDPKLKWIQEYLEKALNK
For a further assay, the target named is T6, CXCL11_HUMAN (human, UniProt O14625 22-94).
T6 sequence: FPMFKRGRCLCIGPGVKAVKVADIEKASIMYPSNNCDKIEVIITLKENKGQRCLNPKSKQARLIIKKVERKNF
The assay is described as follows: BLI.

In the next assay the target is T7, CXCL14_HUMAN (human, UniProt O95715 35-111).
T7 sequence: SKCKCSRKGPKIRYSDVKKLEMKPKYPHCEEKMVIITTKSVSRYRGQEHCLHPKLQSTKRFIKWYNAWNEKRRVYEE
Kind of assay: BLI.

In a further assay the target is T8, CXCL10_HUMAN (human, UniProt P02778 22-98).
T8 sequence: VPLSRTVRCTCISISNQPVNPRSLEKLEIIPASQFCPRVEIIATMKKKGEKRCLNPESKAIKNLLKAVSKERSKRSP
The assay is described as follows: BLI.

In the next assay the target is T9, P985_AMBPA (Amblyomma parvum, UniProt A0A023FT45 25-132).
T9 sequence: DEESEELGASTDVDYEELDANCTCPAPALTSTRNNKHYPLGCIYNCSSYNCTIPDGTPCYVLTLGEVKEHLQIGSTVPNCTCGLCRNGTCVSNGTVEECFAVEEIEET
The assay is described as follows: BLI.

The target in a further assay is T10, P467_RHIPU (Rhipicephalus pulchellus, UniProt L7M8Z8 22-127).
T10 sequence: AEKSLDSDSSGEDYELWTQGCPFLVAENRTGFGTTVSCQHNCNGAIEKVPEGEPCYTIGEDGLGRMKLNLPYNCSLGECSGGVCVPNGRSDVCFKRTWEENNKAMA
Kind of assay: BLI.

The target of another assay is T11, P974_AMBCA (Amblyomma cajennense, UniProt A0A023FDY8 22-118).
T11 sequence: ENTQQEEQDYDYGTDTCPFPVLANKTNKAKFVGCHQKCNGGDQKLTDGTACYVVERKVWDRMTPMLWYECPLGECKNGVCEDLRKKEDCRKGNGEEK
Kind of assay: BLI.

Another assay deals with T12, P546_AMBCA (Amblyomma cajennense, UniProt A0A023FBW7 22-118).
T12 sequence: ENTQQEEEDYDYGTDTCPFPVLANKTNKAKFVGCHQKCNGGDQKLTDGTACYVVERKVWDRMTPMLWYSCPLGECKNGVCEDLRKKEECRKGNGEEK
The assay is described as follows: BLI.

The next assay has as its target T13, CXCL9_HUMAN (human, UniProt Q07325 23-125).
T13 sequence: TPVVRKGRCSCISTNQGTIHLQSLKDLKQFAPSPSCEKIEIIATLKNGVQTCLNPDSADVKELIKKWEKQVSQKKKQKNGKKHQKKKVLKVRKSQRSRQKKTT
The assay is described as follows: BLI.

In the next assay the target is T14, P1181_AMBMA (Amblyomma maculatum, UniProt G3MIX6 26-115).
T14 sequence: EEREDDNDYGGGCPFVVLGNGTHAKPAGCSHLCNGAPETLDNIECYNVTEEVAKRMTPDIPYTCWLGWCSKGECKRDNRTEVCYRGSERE
Kind of assay: BLI.

In the next assay the target is T15, P1182_AMBMA (Amblyomma maculatum, UniProt G3MJ83 27-115).
T15 sequence: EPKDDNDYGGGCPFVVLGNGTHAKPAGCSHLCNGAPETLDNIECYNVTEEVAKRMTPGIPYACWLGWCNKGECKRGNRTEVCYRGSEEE
The assay is described as follows: BLI.

For a further assay, the target named is T16, P1180_AMBTR (Amblyomma triste, UniProt A0A023G6B6 26-116).
T16 sequence: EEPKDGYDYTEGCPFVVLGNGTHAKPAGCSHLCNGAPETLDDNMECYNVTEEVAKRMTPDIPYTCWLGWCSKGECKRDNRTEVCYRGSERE
Kind of assay: BLI.

Like-named read-outs stand apart in the source and are kept apart here.

B1: CCL19_HUMAN (ligand)
chain: GTNDAEDCCLSVTQKPIPGYIVRNFHYLLIKDGCRVPAVVFTTLRGRQLCAPPDQPWVERIIQRLQRTSAKMKRRSS
For B1, the Kd in the assay with P1243_AMBAM [1] was found to be 0.592 nM; with P991_AMBCA, 14.4 nM; in the assay with P1243_AMBAM [2], 0.592 nM.

B2: P1124_IXORI (other)
chain: DSKGTSDSQDSTKSIKVDFCETNCTKTDGGWTGCTGDCICVSVGDSIEGRCMDFG
B2: the binding result in the assay with CXCL8_HUMAN, with CXCL7_HUMAN, in the assay with CXCL4_HUMAN, with CXCL11_HUMAN, with CXCL14_HUMAN and with CXCL10_HUMAN was “no binding (tested: 300 nM)” throughout. This molecule also registered a Kd with CXCL12_HUMAN of 212 nM.

B3: CCL5_HUMAN (ligand)
chain: SPYSSDTTPCCFAYIARPLPRAHIKEYFYTSGKCSNPAVVFVTRKNRQVCANPEKKWVREYINSLEMS
On to B3, for which the Kd in the assay with P985_AMBPA is 3.5 nM; in the assay with P1243_AMBAM [1], 1.74 nM; with P467_RHIPU, 7.67 nM; with P991_AMBCA, 1.47 nM; in the assay with P1243_AMBAM [2] it was 1.74 nM.

B4: CCL17_HUMAN (ligand)
chain: ARGTNVGRECCLEYFKGAIPLRKLKTWYQTSEDCSRDAIVFVTVQGRAICSDPNNKRVKNAVKYLQSLERS
For the molecule B4, the Kd with P1243_AMBAM [1] was found to be 0.734 nM; with P974_AMBCA, 70.6 nM; with P991_AMBCA, 7.66 nM; with P546_AMBCA it was 70 nM; with P1243_AMBAM [2] it was 0.734 nM.

B5: P1095_IXORI (other)
chain: HSPVAGSEVQKLTSDPNDDIDVSYCGMNCTVVNGKSDECSENCKCLHEGDDPKGICVAITYFGDWGDPNDDPKINEATPQTQIFEKKRK
As to B5, in the assay with CXCL9_HUMAN, the binding result was “no binding (tested: 300 nM)”.

B6: CCL1_HUMAN (ligand)
chain: KSMQVPFSRCCFSFAEQEIPLRAILCYRNTSSICSNEGLIFKLKRGKEACALDTVGWVQRHRKMLRHCPSKRK
For B6, the Kd with P985_AMBPA turned out to be 8.3 nM; with P1243_AMBAM [1] it was 21.3 nM; with P467_RHIPU, 53.4 nM; with P974_AMBCA it was 70.5 nM; with P546_AMBCA it was 160 nM; in the assay with P1243_AMBAM [2] it was 21.2 nM.

B7: CCL18_HUMAN (ligand)
chain: AQVGTNKELCCLVYTSWQIPQKFIVDYSETSPQCPKPGVILLTKRGRQICADPNKKWVQKYISDLKLNA
As to B7, the Kd with P985_AMBPA is 430 nM; in the assay with P1243_AMBAM [1], 0.00501 nM; in the assay with P467_RHIPU it was 16.6 nM; in the assay with P974_AMBCA, 17 nM; with P1181_AMBMA, 10 nM; with P1182_AMBMA, 33 nM. In addition, the Kd in the assay with P1180_AMBTR was 5.8 nM; in the assay with P991_AMBCA it was 0.209 nM; in the assay with P546_AMBCA, 16 nM; with P1243_AMBAM [2] it was 0.005 nM.

B8: P1096_IXORI (other)
chain: HTTVTGSVEGKPNNPNEDIEVSYCRMNCTVENGVSSACSGDCVCVHRDNEPNGICVEITYFGDFGDPSQDPSIDEAAPRESVSKRRSNGES
For B8, the binding result in the assay with CXCL12_HUMAN and with CXCL9_HUMAN was “no binding (tested: 300 nM)” in each case.

B9: P1134_IXORI (other)
chain: NEEVFTVEYCGMNCTQKSDGTWTECSGKNKDCRCYHESDAREGLCLSTEYTDFSQFETPSNSDLEAATPRPRKTLYPVRNPHGPKTRGLGYDKRILRDRVKFLI
As for B9, the binding result in the assay with CXCL12_HUMAN is listed as “no binding (tested: 300 nM)”.

B10: P1100_IXORI (other)
chain: GSKGSSASQSSDNSVVAKFCDTNCTINEGGKWTECKGGCFCVHVGNETVGRCMKLDGDYDYPSPKPEE
For the molecule B10, the binding result in the assay with CXCL8_HUMAN, in the assay with CXCL7_HUMAN, in the assay with CXCL4_HUMAN, with CXCL12_HUMAN and with CXCL14_HUMAN was “no binding (tested: 300 nM)” throughout.

B11: P458_IXORI (other)
chain: GSKQPGAAGSSSDSVEAVFCPTNCTKGTNGAWSGCSDDCICVHVGENTEGSCMKFSGDYDYPTPEA
For the molecule B11, the binding result with CXCL8_HUMAN, in the assay with CXCL7_HUMAN, with CXCL4_HUMAN, with CXCL12_HUMAN, in the assay with CXCL11_HUMAN and with CXCL14_HUMAN was “no binding (tested: 300 nM)” throughout. Also, the binding result in the assay with CXCL10_HUMAN is “no binding (tested: 300 nM)”.

B12: CCL27_HUMAN (ligand)
chain: FLLPPSTACCTQLYRKPLSDKLLRKVIQVELQEADGDCHLQAFVLHLAQRSICIHPQNPSLSQWFEHQERKLHGTLPKLNFGMLRKMG
Turning to B12, the Kd in the assay with P1243_AMBAM [1] and in the assay with P1243_AMBAM [2] was 15.1 nM each time.

B13: CCL22_HUMAN (ligand)
chain: GPYGANMEDSVCCRDYVRYRLPLRVVKHFYWTSDSCPRPGVVLLTFRDKEICADPRVPWVKMILNKLSQ
In the assay with P1243_AMBAM [2], B13 yielded a Kd of 22.3 nM.

B14: CCL24_HUMAN (ligand)
chain: VVIPSPCCMFFVSKRIPENRVVSYQLSSRSTCLKAGVIFTTKKGQQFCGDPKQEWVQRYMKNLDAKQKKASPRARAVA
Consider B14, for which, in the assay with P1243_AMBAM [2], binding was put at a Kd of 7.39 nM.

As a reminder, the Kd is a measure of binding affinity in units of concentration. High values mean weaker binding, low ones tighter binding.

The values above are taken from patent publication US20240034757A1 (OXFORD UNIVERSITY INNOVATION, published 2024).
